Target: VHL, P40337-3

Substance	effect of a mutation on the interaction
Diacylglycerol kinase iota (Homo sapiens), O75912 P147A;P895A	disrupting interaction
Diacylglycerol kinase iota (Homo sapiens), O75912 P895A	disrupting interaction
